Data taken from patent US20060263345A1, “Butyrylcholinesterase variant polypeptides with increased catalytic efficiency and methods of use” (priority 2003, published 2006).
Substitutions are numbered along the chain they refer to. Names may count otherwise. “Also recorded” adds a separate entry of the source.

B1: Y332S (protein)
chain: EDDIIIATKNGKVRGMNLTVFGGTVTAFLGIPYAQPPLGRLRFKKPQSLTKWSDIWNATKYANSCCQNIDQSFPGFHGSEMWNPNTDLSEDCLYLNVWIPAPKPKNATVLIWIYGGGFQTGTSSLHVYDGKFLARVERVIVVSMNYRVGALGFLALPGNPEAPGNMGLFDQQLALQWVQKNIAAFGGNPKSVTLFGESAGAASVSLHLLSPGSHSLFTRAILQSGSFNAPWAVTSLYEARNRTLNLAKLTGCSRENETEIIKCLRNKDPQEILLNEAFVVPYGTPLSVNFGPTVDGDFLTDMPDILLELGQFKKTQILVGVNKDEGTAFLVSGAPGFSKDNNSIITRKEFQEGLKIFFPGVSEFGKESILFHYTDWVDDQRPENYREALGDVVGDYNFICPALEFTKKFSEWGNNAFFYYFEHRSSKLPWPEWMGVMHGYEIEFVFGLPLERRDNYTKAEEILSRSIVKRWANFAKYGNPNETQNNSTSWPVFKSTEQKYLTLNTESTRIMTKLRAQQCRFWTSFFPKVLEMTGNIDEAEWEWKAGFHRWNNYMMDWKNQFNDYTSKKESCVGL
modifications: Butyrylcholinesterase variant
B2: Y332M (protein)
chain: B1 chain with S332M
modifications: Butyrylcholinesterase variant
B3: Y332P (protein)
chain: B1 chain with S332P
modifications: Butyrylcholinesterase variant
B4: V331L (protein)
chain: B1 chain with V331L, S332Y
modifications: Butyrylcholinesterase variant
B5: F227A (protein)
chain: B1 chain with F227A, S332Y
modifications: Butyrylcholinesterase variant
B6: F227G (protein)
chain: B1 chain with F227G, S332Y
modifications: Butyrylcholinesterase variant
B7: F227S (protein)
chain: B1 chain with F227S, S332Y
modifications: Butyrylcholinesterase variant
B8: F227P (protein)
chain: B1 chain with F227P, S332Y
modifications: Butyrylcholinesterase variant
B9: F227T (protein)
chain: B1 chain with F227T, S332Y
modifications: Butyrylcholinesterase variant
B10: F227C (protein)
chain: B1 chain with F227C, S332Y
modifications: Butyrylcholinesterase variant
B11: A328W/Y332M (protein)
chain: B1 chain with A328W, S332M
modifications: Butyrylcholinesterase variant
B12: F227M (protein)
chain: B1 chain with F227M, S332Y
modifications: Butyrylcholinesterase variant
B13: A199S (protein)
chain: B1 chain with A199S, S332Y
modifications: Butyrylcholinesterase variant
B14: A328W/Y332P (protein)
chain: B1 chain with A328W, S332P
modifications: Butyrylcholinesterase variant
B15: A328W/V331L (protein)
chain: B1 chain with A328W, V331L, S332Y
modifications: Butyrylcholinesterase variant
B16: A328W/Y332S (protein)
chain: B1 chain with A328W
modifications: Butyrylcholinesterase variant
B17: A328W/Y332M/S287G/F227A/A199S (protein)
chain: B1 chain with A199S, F227A, S287G, A328W, S332M
modifications: Butyrylcholinesterase variant
B18: A328W/S287G/F227A/A199S (protein)
chain: B1 chain with A199S, F227A, S287G, A328W, S332Y
modifications: Butyrylcholinesterase variant
B19: A328W/S287G/A199S (protein)
chain: B1 chain with A199S, S287G, A328W, S332Y
modifications: Butyrylcholinesterase variant
B20: A328W/S287G/F227A (protein)
chain: B1 chain with F227A, S287G, A328W, S332Y
modifications: Butyrylcholinesterase variant

assay: microtiter isotope tracer [3H]-cocaine hydrolysis assay of immobilized butyrylcholinesterase variants; assay type: biochemical; settings: compared to human butyrylcholinesterase
Description: At the conclusion of the isotope tracer assay, an aliquot of the reaction mix is acidified in order to take advantage of the solubility difference between the product and the substrate at pH 3.0. […] Prospect, Ill.) while [3H]-cocaine is not.
The supernatants isolated from each of the butyrylcholinesterase variant library clones contains variable butyrylcholinesterase enzyme concentrations.
At least three approaches are used to either increase the assay sensitivity or the assay signal.
Km values for (−)-cocaine are determined at 37° C. Vmax and Km values are calculated using Sigma Plot (Jandel Scientific, San Rafael, Calif.). The number of active sites of butyrylcholinesterase is determined by the method of residual activity using echothiopate iodide or diisopropyl fluorophosphates as titrants, as described previously by Masson et al., Biochemistry 36: 2266-2277 (1997). […] Purified human butyrylcholinesterase is used as the standard for the ELISA quantitation assay. The catalytic rate constant, kcat, is calculated by dividing Vmax by the concentration of active sites.

Molecule	cocaine hydrolysis activity compared to butyrylcholinesterase (in words)
B1	increased cocaine hydrolysis activity
B2	enhanced cocaine hydrolase activity; also recorded: increased cocaine hydrolysis activity
B3	enhanced cocaine hydrolase activity; also recorded: increased cocaine hydrolysis activity
B4	enhanced cocaine hydrolase activity; also recorded: increased cocaine hydrolysis activity
B5	enhanced cocaine hydrolase activity
B6	enhanced cocaine hydrolase activity
B7	enhanced cocaine hydrolase activity
B8	enhanced cocaine hydrolase activity
B9	enhanced cocaine hydrolase activity
B10	enhanced cocaine hydrolase activity
B11	enhanced cocaine hydrolase activity
B12	enhanced cocaine hydrolase activity
B13	enhanced cocaine hydrolase activity
B14	enhanced cocaine hydrolase activity
B15	enhanced cocaine hydrolase activity
B16	enhanced cocaine hydrolase activity
B17	enhanced cocaine hydrolase activity
B18	enhanced cocaine hydrolase activity
B19	enhanced cocaine hydrolase activity
B20	enhanced cocaine hydrolase activity

same assay, conditions: compared to human butyrylcholinesterase SEQ ID NO: 44; approximate values

Molecule	increase in cocaine hydrolysis activity relative to butyrylcholinesterase
B5	four
B6	four
B7	two
B8	three
B9	two
B10	two
B11	twenty-four
B12	one-and-a-half
B13	two-and-a-half
B14	ten
B15	sixteen
B16	seven
B17	one-hundred
B18	one-hundred
B19	ninety-seven
B20	ninety-one

same assay, conditions: compared to human butyrylcholinesterase SEQ ID NO: 44; approximate values; listed as SEQ ID NO: 8

Molecule	increase in cocaine hydrolysis activity relative to butyrylcholinesterase
B16	eight

same assay, conditions: compared to human butyrylcholinesterase; listed as SEQ ID NO: 20

Molecule	cocaine hydrolysis activity compared to butyrylcholinesterase (in words)
B1	increased cocaine hydrolysis activity

same assay, conditions: compared to human butyrylcholinesterase; listed as SEQ ID NO: 22

Molecule	cocaine hydrolysis activity compared to butyrylcholinesterase (in words)
B2	increased cocaine hydrolysis activity

same assay, conditions: compared to human butyrylcholinesterase; listed as SEQ ID NO: 24

Molecule	cocaine hydrolysis activity compared to butyrylcholinesterase (in words)
B3	increased cocaine hydrolysis activity

same assay, conditions: compared to human butyrylcholinesterase; listed as SEQ ID NO: 26

Molecule	cocaine hydrolysis activity compared to butyrylcholinesterase (in words)
B4	increased cocaine hydrolysis activity

same assay, conditions: compared to human butyrylcholinesterase; listed as Y322S

Molecule	cocaine hydrolysis activity compared to butyrylcholinesterase (in words)
B1	enhanced cocaine hydrolase activity

same assay, conditions: relative to wild-type = 1; catalytic efficiency (Vmax/Km), [3H]-cocaine microtiter assay

Molecule	Relative Activity of butyrylcholinesterase variants (WT = 1) with enhanced cocaine hydrolase activity
B5	4.1
B6	4.0
B7	2.3
B8	2.9
B9	1.9
B10	1.9
B11	24
B12	1.4
B13	2.5
B14	10
B15	16
B16	8
B17	100
B18	100
B19	97
B20	91
